The source of these data is publication PMC4089488 (Acta Crystallographica Section D: Biological Crystallography, 2014).

Positions count from the first letter of the chain named. Numbers in names are those of the source.

T1: human MST1 SARAH domain (residues 432–480) (human) (UniProt Q13043)
T1 sequence: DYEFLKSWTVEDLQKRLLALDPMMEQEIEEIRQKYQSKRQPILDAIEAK

B1: human MST1 SARAH domain (residues 432–480) (domain or fragment, UniProt Q13043 432-480, looked up)
chain: T1 sequence
notes: mammalian sterile 20-like kinase 1 (MST1, KRS-2), human, 487 residues, SARAH domain residues 432-480; A selenomethionine-labelled form (E. coli B834 (DE3)) was used for SAD phasing; also called KRS-2; hMST1; source: E. coli BL21, GST fusion protein, purified as described previously (Hwang et al., 2007)
B2: human MST2 SARAH domain (residues 436–484) (domain or fragment, UniProt Q13188 436-484, looked up)
chain: DFDFLKNLSLEELQMRLKALDPMMEREIEELRQRYTAKRQPILDAMDAK
notes: mammalian sterile 20-like kinase 2 (MST2, KRS-1), human, 491 residues, SARAH domain residues 436-484; Forms a homodimer (one homodimer in the asymmetric unit); also called KRS-1; hMST2; source: E. coli BL21, GST fusion protein, purified as described previously (Hwang et al., 2010)
B3: RASSF5 SARAH domain double mutant (E388A and K398A) (domain or fragment)
chain: EVEWDAFSIPELQNFLTILEKEAQDKIQQVQKAYDKFRQKLEEALRESQGKPG
B4: human RASSF5 SARAH domain (residues 366–418) (domain or fragment, UniProt Q8WWW0 366-418, looked up)
chain: B3 chain with A23E, A33K

In data set [1] the target is B4. Nature of the data set: crystal structure; MST1–RASSF5 SARAH heterodimer (domains mixed 1:2, heterodimer separated on Superdex 75 in 25 mM HEPES pH 7.0, 100 mM NaCl, 2 mM DTT); hanging drop, 20°C, 35% MPD, acetate pH 4.8; space group C222(1), one heterodimer in the asymmetric unit; SAD phasing with SeMet MST1. The note with it: both partners purified.
Data set [2] concerns the molecule itself. Description: cell-based or functional assay.
Data set [3] concerns the molecule itself. Description: crystal structure; MST2 SARAH homodimer, 40 mg/ml; hanging drop, 20°C, 2.0 M NaCl, 8% PEG 6000; space group P4(1)2(1)2, one homodimer in the asymmetric unit; molecular replacement.
Data set [4] has as its target B4. Nature of the data set: NMR titration; MST2 SARAH homodimer titrated with the RASSF5 SARAH domain in solution (Supplementary Fig. S7). The following applies: both partners purified.
The target in data set [5] is T1, human MST1 SARAH domain (residues 432–480) (human).
The target in data set [6] is B1. Nature of the data set: cell-based or functional assay.

For B1, the binding result in data set [1] is given as “binds”. Further, in data set [2], the “free energy of unfolding of the homodimer, urea-induced denaturation followed by CD, two-state fit” value was determined as 2 kcal/mol.
With B2, the binding result in data set [3] and in data set [4] was “binds” throughout.
The molecule B3 yielded a transition concentration (C m) of urea, urea-induced denaturation of the double-mutant SARAH heterodimer followed by CD at 222 nm in data set [5] of 3.2 M.
Take B4: the “free energy of unfolding of the heterodimer, urea-induced denaturation followed by CD, two-state fit” value in data set [6] was determined as 4.8 kcal/mol.
